Residue numbers refer to the chain shown, from its start. Like-named read-outs stand apart in the source and are kept apart here.
B1: Db-Glyco-scTRAIL3-FAVSGAA (other)
chain: LEASDYKDDDDKGAEVQLVESGGGLVQPGGSLRLSCAASGFSLTNYGVHWVRQAPGKGLEWLGVIWSGGNTDYNTPFTSRFTISRDNSKNTLYLQMNSLRAEDTAVYYCARALTYYDYEFAYWGQGTTVTVSSGGGGSDIQLTQSPSFLSASVGDRVTITCRASQSIGTNIHWYQQKPGKAPKLLIKYASESISGVPSRFSGSGSGTEFTLTISSLQPEDFATYYCQQNNNWPTTFGAGTKLEIKRAAAGNGTSNGTSEFGGAAAHITGTRGRSNTLSSPNSKNEKALGRKINSWESSRSGHSFLSNLHLRNGELVIHEKGFYYIYSQTYFRFQEEIKENTKNDKQMVQYIYKYTSYPDPILLMKSARNSCWSKDAEYGLYSIYQGGIFELKENDRIFVSVTNEHLIDMDHEASFFGAFAVSGAAAHITGTRGRSNTLSSPNSKNEKALGRKINSWESSRSGHSFLSNLHLRNGELVIHEKGFYYIYSQTYFRFQEEIKENTKNDKQMVQYIYKYTSYPDPILLMKSARNSCWSKDAEYGLYSIYQGGIFELKENDRIFVSVTNEHLIDMDHEASFFGAFAVSGAAAHITGTRGRSNTLSSPNSKNEKALGRKINSWESSRSGHSFLSNLHLRNGELVIHEKGFYYIYSQTYFRFQEEIKENTKNDKQMVQYIYKYTSYPDPILLMKSARNSCWSKDAEYGLYSIYQGGIFELKENDRIFVSVTNEHLIDMDHEASFFGAFAVS
modifications: two N-glycosylation sites in the peptide AAAGNGTSNGTSEFGG, shown to be glycosylated
B2: Db-Glyco-scTRAIL3-FAVSGIA (other)
chain: B1 chain with A263I, A424I, A585I
modifications: glycosylated connecting peptide
B3: Db8-Glyco-scTRAIL3-FAVSGAA (other)
chain: LEASDYKDDDDKGAEVQLVESGGGLVQPGGSLRLSCAASGFSLTNYGVHWVRQAPGKGLEWLGVIWSGGNTDYNTPFTSRFTISRDNSKNTLYLQMNSLRAEDTAVYYCARALTYYDYEFAYWGQGTTVTVSSGGGGSGGGDIQLTQSPSFLSASVGDRVTITCRASQSIGTNIHWYQQKPGKAPKLLIKYASESISGVPSRFSGSGSGTEFTLTISSLQPEDFATYYCQQNNNWPTTFGAGTKLEIKRAAAGNGTSNGTSEFGGAAAHITGTRGRSNTLSSPNSKNEKALGRKINSWESSRSGHSFLSNLHLRNGELVIHEKGFYYIYSQTYFRFQEEIKENTKNDKQMVQYIYKYTSYPDPILLMKSARNSCWSKDAEYGLYSIYQGGIFELKENDRIFVSVTNEHLIDMDHEASFFGAFAVSGAAAHITGTRGRSNTLSSPNSKNEKALGRKINSWESSRSGHSFLSNLHLRNGELVIHEKGFYYIYSQTYFRFQEEIKENTKNDKQMVQYIYKYTSYPDPILLMKSARNSCWSKDAEYGLYSIYQGGIFELKENDRIFVSVTNEHLIDMDHEASFFGAFAVSGAAAHITGTRGRSNTLSSPNSKNEKALGRKINSWESSRSGHSFLSNLHLRNGELVIHEKGFYYIYSQTYFRFQEEIKENTKNDKQMVQYIYKYTSYPDPILLMKSARNSCWSKDAEYGLYSIYQGGIFELKENDRIFVSVTNEHLIDMDHEASFFGAFAVS
modifications: glycosylated connecting peptide
B4: Dbhu225-scTRAIL3-FLVGGGPQRVA (other, not shown: small tags and cut ends)
chain: DYKDDDDKGGGGSGTEVQLVESGGGLVQPGGSLRLSCAASGFSLTNYGVHWVRQAPGKGLEWLGVIWSGGNTDYNTPFTSRFTISRDNSKNTLYLQMNSLRAEDTAVYYCARALTYYDYEFAYWGQGTTVTVSSGGGGSDIQLTQSPSFLSASVGDRVTITCRASQSIGTNIHWYQQKPGKAPKLLIKYASESISGVPSRFSGSGSGTEFTLTISSLQPEDFATYYCQQNNNWPTTFGAGTKLEIKRAAAGGSGGGPQRVAAHITGTRGRSNTLSSPNSKNEKALGRKINSWESSRSGHSFLSNLHLRNGELVIHEKGFYYIYSQTYFRFQEEIKENTKNDKQMVQYIYKYTSYPDPILLMKSARNSCWSKDAEYGLYSIYQGGIFELKENDRIFVSVTNEHLIDMDHEASFFGAFLVGGGPQRVAAHITGTRGRSNTLSSPNSKNEKALGRKINSWESSRSGHSFLSNLHLRNGELVIHEKGFYYIYSQTYFRFQEEIKENTKNDKQMVQYIYKYTSYPDPILLMKSARNSCWSKDAEYGLYSIYQGGIFELKENDRIFVSVTNEHLIDMDHEASFFGAFLVGGGPQRVAAHITGTRGRSNTLSSPNSKNEKALGRKINSWESSRSGHSFLSNLHLRNGELVIHEKGFYYIYSQTYFRFQEEIKENTKNDKQMVQYIYKYTSYPDPILLMKSARNSCWSKDAEYGLYSIYQGGIFELKENDRIFVSVTNEHLIDMDHEASFFGAFLVG
B5: dsDbhu225-scTRAIL3-FLVGGGPQRVA (other, not shown: small tags and cut ends)
chain: B4 chain with G59C, A239C
B6: scFvhu225-EHD2-scTRAIL3-FLVGGGPQRVA (other)
chain: DYKDDDDKGGGGSGTEVQLVESGGGLVQPGGSLRLSCAASGFSLTNYGVHWVRQAPGKGLEWLGVIWSGGNTDYNTPFTSRFTISRDNSKNTLYLQMNSLRAEDTAVYYCARALTYYDYEFAYWGQGTTVTVSSGGGGSGGGGSGGGGSDIQLTQSPSFLSASVGDRVTITCRASQSIGTNIHWYQQKPGKAPKLLIKYASESISGVPSRFSGSGSGTEFTLTISSLQPEDFATYYCQQNNNWPTTFGAGTKLEIKRAAAGGSGGDFTPPTVKILQSSCDGGGHFPPTIQLLCLVSGYTPGTINITWLEDGQVMDVDLSTASTTQEGELASTQSELTLSQKHWLSDRTYTCQVTYQGHTFEDSTKKCADSNGGSGGASSGGGPQRVAAHITGTRGRSNTLSSPNSKNEKALGRKINSWESSRSGHSFLSNLHLRNGELVIHEKGFYYIYSQTYFRFQEEIKENTKNDKQMVQYIYKYTSYPDPILLMKSARNSCWSKDAEYGLYSIYQGGIFELKENDRIFVSVTNEHLIDMDHEASFFGAFLVGGGPQRVAAHITGTRGRSNTLSSPNSKNEKALGRKINSWESSRSGHSFLSNLHLRNGELVIHEKGFYYIYSQTYFRFQEEIKENTKNDKQMVQYIYKYTSYPDPILLMKSARNSCWSKDAEYGLYSIYQGGIFELKENDRIFVSVTNEHLIDMDHEASFFGAFLVGGGPQRVAAHITGTRGRSNTLSSPNSKNEKALGRKINSWESSRSGHSFLSNLHLRNGELVIHEKGFYYIYSQTYFRFQEEIKENTKNDKQMVQYIYKYTSYPDPILLMKSARNSCWSKDAEYGLYSIYQGGIFELKENDRIFVSVTNEHLIDMDHEASFFGAFLVG
B7: Db anti-FAP-Glyco-scTRAIL3-FAVSGAA (other)
chain: LEASDYKDDDDKGTGQVQLVQSGAEVKKPGASVKVSCKASGYTFTENIIHWVRQAPGQGLEWMGWFHPGSGSIKYNEKFKDRVTMTADTSTSTVYMELSSLRSEDTAVYYCARHGGTGRGAMDYWGQGTLVTVSSGGGGSDIQMTQSPSSLSASVGDRVTITCRASKSVSTSAYSYMHWYQQKPGKAPKLLIYLASNLESGVPSRFSGSGSGTDFTLTISSLQPEDFATYYCQHSRELPYTFGQGTKLEIKRAAAGNGTSNGTSEFGGAAAHITGTRGRSNTLSSPNSKNEKALGRKINSWESSRSGHSFLSNLHLRNGELVIHEKGFYYIYSQTYFRFQEEIKENTKNDKQMVQYIYKYTSYPDPILLMKSARNSCWSKDAEYGLYSIYQGGIFELKENDRIFVSVTNEHLIDMDHEASFFGAFAVSGAAAHITGTRGRSNTLSSPNSKNEKALGRKINSWESSRSGHSFLSNLHLRNGELVIHEKGFYYIYSQTYFRFQEEIKENTKNDKQMVQYIYKYTSYPDPILLMKSARNSCWSKDAEYGLYSIYQGGIFELKENDRIFVSVTNEHLIDMDHEASFFGAFAVSGAAAHITGTRGRSNTLSSPNSKNEKALGRKINSWESSRSGHSFLSNLHLRNGELVIHEKGFYYIYSQTYFRFQEEIKENTKNDKQMVQYIYKYTSYPDPILLMKSARNSCWSKDAEYGLYSIYQGGIFELKENDRIFVSVTNEHLIDMDHEASFFGAFAVS
modifications: 16 aa peptide linker with two N-glycosylation sites

Experiments:
Test in all cases: cell-based or functional assay
[1] = target: T1, EGFR on EGFR-positive tumor cell lines (UniProt P00533 25-1210, limits assumed)
[2] = target: T1, EGFR on EGFR-positive tumor cell lines; remark: listed apart in the source
[3] = target: fibroblast activation protein (FAP) on transfected HT1080 cells (UniProt Q12884 1-760, limits assumed)

Row | Binder | EC50 of cell death induction, Colo205, with Bortezomib [1] [nM] | EC50 of cell death induction, Colo205, with Bortezomib + Cetuximab [1] [nM] | EC50 of cell death induction, HCT116, with Bortezomib [1] [nM] | EC50 of cell death induction, HCT116, with Bortezomib + Cetuximab [1] [nM] | EC50 of cell death induction, HT1080, with Bortezomib [1] [nM] | EC50 of cell death induction, HT1080, with Bortezomib + Cetuximab [1] [nM] | EC50 of cell death induction, Colo205, with Bortezomib [2] [nM] | EC50 of cell death induction, Colo205, without bortezomib [2] [nM] | EC50 of cell death induction, Colo205 in presence of Cetuximab, with bortezomib [2] [nM] | EC50 of cell death induction, Colo205 in presence of Cetuximab, without bortezomib [2] [nM] | further results
1 | B1 | 0.033 | 0.074 | 0.066 | 0.45 | 0.001 | 0.01 |  |  |  |  | 
2 | B2 | 0.019 | 0.032 | 0.043 | 0.161 | 0.0006 | 0.005 |  |  |  |  | 
3 | B3 | 0.026 | 0.061 | 0.051 | 0.3 | 0.0009 | 0.007 |  |  |  |  | 
4 | B4 |  |  |  |  |  |  | 0.0038 | 0.041 | 0.0138 | 0.102 | 
5 | B5 |  |  |  |  |  |  | 0.0025 | 0.0212 | 0.0072 | 0.0423 | 
6 | B6 |  |  |  |  |  |  | 0.0018 | 0.0119 | 0.0067 | 0.0693 | 
7 | B7 |  |  |  |  |  |  |  |  |  |  | EC50 of cytotoxicity on HT1080 FAP+ cells, competing with excess anti-FAP IgG [3]: 0.04 nM; EC50 of cytotoxicity on HT1080 FAP+ cells, with bortezomib, competing conditions [3]: 0.0041 nM; EC50 of cytotoxicity on HT1080 FAP+ cells, with bortezomib, non-competing conditions [3]: 0.002 nM; EC50 of cytotoxicity on HT1080 FAP+ cells, without αFAP IgG [3]: 0.029 nM

Source: patent US20180094059A1 (UNIVERSITAT STUTTGART, published 2018)
